The assay addresses complex I-containing supercomplex (human (endogenous in fibroblasts and HEK293)) (UniProt P56181). Briefly: complexome profiling (blue native electrophoresis with mass spectrometry); mitochondria-enriched membranes of control fibroblast and control HEK293 cells, solubilised with detergent (digitonin for supercomplexes), 3% to 18% acrylamide blue native gel, gel bands or slices read by quantitative mass spectrometry; co-migration.
UniProt P56181, sequence (P56181 whole entry, looked up, one chain of several): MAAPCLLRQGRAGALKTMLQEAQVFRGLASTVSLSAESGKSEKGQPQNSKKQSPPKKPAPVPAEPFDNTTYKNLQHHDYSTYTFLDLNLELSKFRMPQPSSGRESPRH

B1: DNAJC30 (natural protein)
chain: SQGDCSYSRTALYDLLGVPSTATQAQIKAAYYRQCFLYHPDRNSGSAEAAERFTRISQAYVVLGSATLRRKYDRGLLSDEDLRGPGVRPSRTPAPDPGSPRTPPPTSRTHDGSRASPGANRTMFNFDAFYQAHYGEQLERERRLRARREALRKRQEYRSMKGLRWEDTRDTAAIFLIFSIFIIIGFYI
Consider B1, for which the ratio DNAJC30/complex I in the supercomplex (DNAJC30/complex I) was 0.005.

The values above are taken from PMC7954600.
